According to paper doi:10.1101/2023.11.06.565731:

Columns and labels:
[1] = target: mouse α-synuclein pre-formed fibrils (mouse) (UniProt O55042); test: other fluorescence titration
[2] = target: mouse α-synuclein type B* oligomers (mouse) (UniProt O55042); test: other fluorescence titration

BODIPY630/650-labelled PSMα3 peptide probe P1
Kd [1]: 1400 nM
fold increase of the emission peak intensity [1]: 16 fold
fold increase of the excitation peak intensity [1]: 7.6 fold
fold increase of the emission peak intensity [2]: 3 fold
fold increase of the excitation peak intensity [2]: 1.8 fold
